The record followed here is article PMC10002482, “BMPER Improves Vascular Remodeling and the Contractile Vascular SMC Phenotype” (International Journal of Molecular Sciences, 2023).

The target of experiment [1] is T1, recombinant BMPER (BMP endothelial cell precursor-derived regulator) ( (recombinant human and …, UniProt Q8N8U9 40-685)).
T1 construct: BMPER, recombinant protein used as analyte in SPR; whether this holds for the SPR proteins is surmised; Secreted glycoprotein; also called soluble BMPER; source: recombinant
In words: SPR; BIAcore 2000; IGFBP-4 immobilised at 360 RU on CM5 by amine coupling; 0-320 nM BMPER injected in HBS-EP (0.01 M HEPES pH 7.4, 0.15 M NaCl, 3 mM EDTA, 0.005% P20), 180 s association, 180 s dissociation; 1:1 model with mass transfer; apparent KD = kd/ka. The conditions noted are these: both partners purified.

In experiment [2] the target is T1, recombinant BMPER (BMP endothelial cell …). In words: SPR; BIAcore 2000; BMP-4 immobilised at 430 RU on CM5 by amine coupling; 0-320 nM BMPER or IGFBP-4 injected in HBS-EP; 1:1 model with mass transfer; apparent KD = kd/ka. Conditions: both partners purified.

T1 sequence (Q8N8U9 40-685): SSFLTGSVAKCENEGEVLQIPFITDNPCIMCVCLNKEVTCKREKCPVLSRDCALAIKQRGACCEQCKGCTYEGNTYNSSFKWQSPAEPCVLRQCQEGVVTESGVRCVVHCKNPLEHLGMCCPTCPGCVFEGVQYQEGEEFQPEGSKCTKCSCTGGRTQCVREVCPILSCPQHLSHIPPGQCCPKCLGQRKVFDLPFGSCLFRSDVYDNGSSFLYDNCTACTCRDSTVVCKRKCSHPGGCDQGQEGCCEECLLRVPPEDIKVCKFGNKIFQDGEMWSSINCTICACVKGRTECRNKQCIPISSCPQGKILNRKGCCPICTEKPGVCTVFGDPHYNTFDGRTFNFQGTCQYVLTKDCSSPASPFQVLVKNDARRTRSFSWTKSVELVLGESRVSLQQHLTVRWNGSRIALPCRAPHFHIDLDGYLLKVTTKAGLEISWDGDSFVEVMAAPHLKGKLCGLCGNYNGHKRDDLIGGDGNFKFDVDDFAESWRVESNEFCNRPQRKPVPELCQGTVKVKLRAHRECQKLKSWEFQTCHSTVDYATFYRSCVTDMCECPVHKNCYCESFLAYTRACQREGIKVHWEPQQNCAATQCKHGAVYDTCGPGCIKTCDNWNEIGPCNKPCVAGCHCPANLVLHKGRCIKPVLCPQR

B1: recombinant IGFBP-4 (insulin-like growth factor-binding protein 4) (natural protein, UniProt P22692 22-258, looked up)
chain: DEAIHCPPCSEEKLARCRPPVGCEELVREPGCGCCATCALGLGMPCGVYTPRCGSGLRCYPPRGVEKPLHTLMHGQGVCMELAEIEAIQESLQPSDKDEGDHPNNSFSPCSAHDRRCLQKHFAKIRDRSTSGGKMKVNGAPREDARPVPQGSCQSELHRALERLAASQSRTHEDLYIIPIPNCDRNGNFHPKQCHPALDGQRGKCWCVDRKTGVKLPGGLEPKGELDCHQLADSFRE
notes: IGFBP4, recombinant protein immobilised or injected in SPR; whether this holds for the SPR proteins is surmised; source: recombinant
Take B1: the Kd in experiment [1] amounted to 6.04 ± 1.86 nM.

B2: BMP-4 (bone morphogenetic protein 4) (ligand, UniProt P12644 293-408, looked up)
chain: SPKHHSQRARKKNKNCRRHSLYVDFSDVGWNDWIVAPPGYQAFYCHGDCPFPLADHLNSTNHAIVQTLVNSVNSSIPKACCVPTELSAISMLYLDEYDKVVLKNYQEMVVEGCGCR
notes: BMP4, immobilised on a CM5 chip in SPR
B2: the Kd in experiment [2] came to 1.5 nM.
